The Human Domainome abundance scans (Beltran et al. 2025)
± gives the uncertainty stated by the source.

B1: Myocardin-related transcription factor A, residues 341 to 383; numbered along this chain, Q969V6 (parent)
chain: GALPANLDDMKVAELKQELKLRSLPVSGTKTELIERLRAYQDQ
B2: Gamma-crystallin D, residues 90 to 170; numbered along this chain, P07320 (parent)
chain: IRLYEREDYRGQMIEFTEDCSCLQDRFRFNEIHSLNVLEGSWVLYELSNYRGRQYLLMPGDYRRYQDWGATNARVGSLRRV

Variants of: B1
Assay: abundance fitness (aPCA) (normalised: wild type 0, dead -1); higher = more abundant; growth selection in yeast, the domain comes from the species named
Conditions: Homo sapiens

Abundance fitness, by site and new letter:
Y40: C 0.127 ± 0.082 | L -0.062 ± 0.077 | D 0.308 ± 0.074 | V 0.179 ± 0.062 | N 0.127 ± 0.075 | G 0.202 ± 0.065 | M 0.02 ± 0.087 | A 0.247 ± 0.064 | W 0.178 ± 0.073 | R 0.042 ± 0.061 | F 0.12 ± 0.062 | S 0.246 ± 0.074 | P 0.192 ± 0.1 | Q -0.189 ± 0.23 | K -0.103 ± 0.12 | H 0.228 ± 0.15 | E 0.179 ± 0.11 | T 0.08 ± 0.11
A39: Q 0.205 ± 0.086 | K 0.284 ± 0.064 | S 0.221 ± 0.073 | P 0.168 ± 0.096 | W 0.074 ± 0.076 | Y 0.129 ± 0.075 | N 0.259 ± 0.088 | V 0.187 ± 0.06 | I -0.034 ± 0.11 | E 0.411 ± 0.11 | L 0.168 ± 0.077 | F -0.127 ± 0.11
Q43: V 0.334 ± 0.1 | S -0.029 ± 0.13 | E 0.357 ± 0.27 | T 0.164 ± 0.1 | C -0.037 ± 0.1 | W 0.208 ± 0.23 | R 0.567 ± 0.21 | H -0.01 ± 0.25 | I 0.042 ± 0.11
R38: S -0.126 ± 0.081 | W -0.236 ± 0.2 | Y -0.053 ± 0.15 | P -0.107 ± 0.1 | T -0.233 ± 0.077 | L -0.224 ± 0.083 | K -0.138 ± 0.096 | V -0.152 ± 0.071 | M -0.052 ± 0.24 | Q -0.24 ± 0.074
D42: K 0.022 ± 0.083 | Q -0.087 ± 0.23 | P 0.059 ± 0.13 | W -0.31 ± 0.12 | L -0.081 ± 0.072 | C 0.045 ± 0.16 | T 0.037 ± 0.12 | H -0.23 ± 0.093 | I -0.538 ± 0.12 | S -0.017 ± 0.11 | R -0.234 ± 0.076 | E 0.137 ± 0.11 | N 0.186 ± 0.41 | A 0.205 ± 0.066
Q41: I -0.021 ± 0.21 | L 0.069 ± 0.066 | P 0.066 ± 0.072 | N 0.18 ± 0.21 | Y -0.307 ± 0.28 | V 0.055 ± 0.056 | R 0.089 ± 0.06 | S 0.081 ± 0.061 | W 0.083 ± 0.083 | C 0.061 ± 0.1 | G 0.262 ± 0.058 | M 0.107 ± 0.078 | F 0.222 ± 0.19 | H -0.125 ± 0.1 | K 0.202 ± 0.096

Variants of: B2
Assay: as above
Conditions: Homo sapiens

Abundance fitness, by site and new letter:
Y4: H 0.219 ± 0.44 | L -0.646 ± 0.17 | R -0.22 ± 0.11 | D 0.074 ± 0.32 | G -0.683 ± 0.21 | C 0.222 ± 0.35 | A -0.472 ± 0.13 | V -0.82 ± 0.16 | E -0.881 ± 0.3 | W -0.192 ± 0.15 | N 0.02 ± 0.11
E5: G -0.025 ± 0.07 | Q -0.013 ± 0.058 | W 0.154 ± 0.1 | H -0.176 ± 0.3 | F 0.002 ± 0.13 | M 0.051 ± 0.17 | A -0.086 ± 0.09 | D -0.013 ± 0.12 | T -0.146 ± 0.12 | K 0.112 ± 0.088 | S 0.046 ± 0.071 | R 0.023 ± 0.068 | P 0.027 ± 0.099 | Y 0.167 ± 0.19 | C -0.179 ± 0.22 | V 0.053 ± 0.084 | N -0.096 ± 0.31 | I 0.079 ± 0.21
M13: G 0.017 ± 0.051 | N -0.042 ± 0.18 | H 0.001 ± 0.17 | Q -0.115 ± 0.12 | V 0.04 ± 0.08 | W -0.127 ± 0.099 | E -0.056 ± 0.16 | R -0.075 ± 0.073 | D 0.034 ± 0.14 | I -0.021 ± 0.15 | T -0.122 ± 0.094 | F 0.009 ± 0.17 | C -0.176 ± 0.13 | A 0.08 ± 0.1 | L 0.002 ± 0.081 | S 0.061 ± 0.14 | Y -0.524 ± 0.27
L3: S 0.122 ± 0.21 | T -0.239 ± 0.31 | R -1.02 ± 0.38 | V 0.076 ± 0.14 | G -0.131 ± 0.18 | F -0.012 ± 0.43 | P -1 ± 0.46
G11: S -0.1 ± 0.083 | N -0.094 ± 0.16 | P -0.521 ± 0.12 | W -1.01 ± 0.18 | A 0.035 ± 0.073
E15: T -0.027 ± 0.13 | N 0.206 ± 0.29 | M -0.013 ± 0.092 | L -0.032 ± 0.075 | Y -0.135 ± 0.2 | F 0.015 ± 0.19 | A -0.065 ± 0.11 | V -0.118 ± 0.076 | S -0.11 ± 0.086 | G -0.08 ± 0.061 | P 0.038 ± 0.11 | I -0.034 ± 0.23 | K 0.204 ± 0.17 | C 0.008 ± 0.18 | W -0.093 ± 0.074 | R -0.084 ± 0.059 | D -0.166 ± 0.14
E7: R -0.043 ± 0.065 | K 0.103 ± 0.22 | S 0.069 ± 0.14 | I -0.107 ± 0.34 | M -0.029 ± 0.17 | G -0.095 ± 0.083 | Q -0.016 ± 0.13 | F -0.148 ± 0.19 | C -0.333 ± 0.16 | A 0.001 ± 0.083 | V -0.04 ± 0.1 | L -0.031 ± 0.12 | W 0.045 ± 0.097 | Y -0.498 ± 0.43
R2: V -0.146 ± 0.3 | L -0.162 ± 0.33 | T -0.105 ± 0.19
I14: M 0.086 ± 0.12 | F 0.019 ± 0.26 | Y -0.018 ± 0.16 | G -0.092 ± 0.069 | K -0.092 ± 0.13 | W -0.09 ± 0.11 | N 0.056 ± 0.21 | T -0.018 ± 0.11 | P -0.825 ± 0.18 | A -0.401 ± 0.045 | L -0.106 ± 0.087 | D 0.08 ± 0.18 | V -0.001 ± 0.09 | S 0.107 ± 0.1 | C -0.004 ± 0.1
D8: F 0.085 ± 0.2 | M -0.006 ± 0.13 | P 0.026 ± 0.12 | A -0.079 ± 0.095 | C 0.05 ± 0.13 | R 0.025 ± 0.072 | L 0.025 ± 0.092 | S -0.03 ± 0.075 | W -0.153 ± 0.098 | E 0.015 ± 0.12 | T -0.016 ± 0.096 | N -0.342 ± 0.18 | V -0.049 ± 0.09 | G -0.004 ± 0.074 | K 0.111 ± 0.14 | I -0.152 ± 0.23 | H -0.086 ± 0.17 | Q 0.097 ± 0.16
T17: W -0.068 ± 0.099 | K -0.061 ± 0.13 | Q -0.11 ± 0.11 | V 0.005 ± 0.064 | C 0.007 ± 0.14 | Y 0.004 ± 0.22 | I 0.073 ± 0.11 | F 0.08 ± 0.14 | R 0.074 ± 0.064 | L 0.001 ± 0.069 | D -0.012 ± 0.14 | S -0.022 ± 0.063 | E -0.089 ± 0.095 | M -0.172 ± 0.16 | A -0.177 ± 0.071 | P 0.152 ± 0.082 | N -0.001 ± 0.25 | G 0.016 ± 0.064
Y9: S 0.175 ± 0.078 | K 0.001 ± 0.19 | F 0.104 ± 0.19 | R 0.204 ± 0.058 | H 0.19 ± 0.36 | E 0.082 ± 0.073 | D -0.076 ± 0.14 | G 0.06 ± 0.053 | M 0.064 ± 0.18 | N 0.217 ± 0.14 | I 0.112 ± 0.2 | C 0.194 ± 0.13 | Q 0.07 ± 0.11 | W 0.036 ± 0.066 | P -0.529 ± 0.12 | V -0.396 ± 0.073 | T 0.179 ± 0.12
R10: S -0.138 ± 0.077 | L -0.064 ± 0.096 | Y -0.087 ± 0.18 | G -0.004 ± 0.064 | E 0.059 ± 0.14 | K 0.226 ± 0.13 | Q -0.069 ± 0.14 | F 0.025 ± 0.098 | V -0.005 ± 0.069 | N 0.077 ± 0.24 | C 0.046 ± 0.12 | I 0.074 ± 0.21 | P -1.07 ± 0.19 | T -0.034 ± 0.1 | D -0.118 ± 0.14 | W -0.027 ± 0.1 | M -0.026 ± 0.12 | A -0.093 ± 0.057
F16: W 0.143 ± 0.09 | Y -0.606 ± 0.42 | A -0.1 ± 0.081 | L 0.08 ± 0.078 | H 0.052 ± 0.31 | P 0.109 ± 0.09 | G 0.035 ± 0.052 | C -0.029 ± 0.12 | V 0.034 ± 0.071 | M -0.115 ± 0.15 | E -0.018 ± 0.095 | S 0.035 ± 0.068 | D -0.163 ± 0.11 | K -0.118 ± 0.1 | T -0.089 ± 0.12 | R 0.082 ± 0.063 | Q 0.033 ± 0.13 | I -0.077 ± 0.26 | N 0.095 ± 0.18
I1: T -0.37 ± 0.22 | G -0.344 ± 0.18 | N 0.12 ± 0.31 | V -0.094 ± 0.27 | A 0.139 ± 0.24 | M -0.021 ± 0.14 | F -0.462 ± 0.45 | W -1 ± 0.34 | L -0.1 ± 0.34
Q12: S -0.008 ± 0.079 | M 0.062 ± 0.14 | T -0.041 ± 0.096 | E -0.105 ± 0.11 | L -0.173 ± 0.075 | V 0.1 ± 0.089 | H 0.021 ± 0.16 | C -0.352 ± 0.24 | N 0.102 ± 0.19 | Y 0.007 ± 0.19 | D -0.019 ± 0.14 | P 0 ± 0.073 | A -0.055 ± 0.076 | K 0.052 ± 0.23 | G 0.04 ± 0.066 | F -0.192 ± 0.17 | W -0.176 ± 0.12 | I -0.061 ± 0.17
E18: S 0.04 ± 0.1 | R 0.048 ± 0.079 | I -0.074 ± 0.1 | T -0.035 ± 0.088 | Q 0.054 ± 0.17 | C 0.05 ± 0.1 | A -0.018 ± 0.057 | P -0.584 ± 0.14 | G -0.088 ± 0.067 | L 0.001 ± 0.072 | D -0.08 ± 0.15 | H 0.027 ± 0.31 | M -0.005 ± 0.15 | N 0.11 ± 0.23
R6: Q -0.066 ± 0.14 | H -0.124 ± 0.27 | N 0.153 ± 0.24 | K -0.027 ± 0.17 | C 0.069 ± 0.096 | D -0.172 ± 0.23 | I -0.047 ± 0.21 | M -0.042 ± 0.18 | S -0.01 ± 0.087 | G -0.011 ± 0.07 | T 0.005 ± 0.11 | A 0.044 ± 0.094 | F -0.262 ± 0.26 | E -0.018 ± 0.13 | L 0.012 ± 0.094 | Y -0.092 ± 0.26 | V -0.035 ± 0.1 | P -1.02 ± 0.2
